Experiments:
[1] = target: CTLA-4 (coated for ELISA), P16410; test: ELISA; details: chain shown with the change; CTLA-4 coated at 5 μg/mL on the ELISA plate
[2] = target: CTLA-4 (coated for ELISA) (UniProt P16410); test: ELISA; CTLA-4 (5 μg/mL) coated on 384-well plate; purified MBP–peptide–His-tag fusion in 15-point two-fold dilution from 14 μM to 0.85 nM in PBS with 0.5% BSA, 1 h; detected with anti-FLAG M2 peroxidase antibody; EC50 = midpoint concentration
[3] = target: CTLA-4 of the CTLA-4:B7-1[Biotinylated] Inhibitor Screening Assay kit (UniProt P16410); test: ELISA; CTLA-4:B7-1[Biotinylated] Inhibitor Screening Assay kit (BPS Bioscience) with the MBP–peptide–His-tag fusion protein; data not shown

Sequence of CTLA-4 (coated for ELISA), P16410 (P16410 36-161): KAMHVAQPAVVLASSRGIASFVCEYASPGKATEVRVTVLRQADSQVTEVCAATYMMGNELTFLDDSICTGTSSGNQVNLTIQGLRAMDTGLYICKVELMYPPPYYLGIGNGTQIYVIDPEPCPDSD

EC50 [1] [nM] | EC50 [2] [nM] | IC50 [3] [nM] | Binder
81.8 | – | – | CLHPFLPIVSHHFCGR [MBP–C4-302–His-tag fusion protein M1L; L6P; V7I; G(+2)R]
– | 74.7 | 1360 | CMHPFLPIVSHHFCER [MBP–C4m-3127 peptide–His-tag fusion protein]
